Assay in all cases: two-hybrid library CCNG1;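 also: natural log of median RNA to DNA barcode read ratio; higher means stronger binding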
In one assay the target is T1, O9-bN.
T1 chain: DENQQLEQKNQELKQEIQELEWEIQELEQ

In a further assay the target is T2, O5-bN.
T2 chain: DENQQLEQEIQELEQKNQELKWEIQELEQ

The next assay has as its target T3, O16-bN.
T3 chain: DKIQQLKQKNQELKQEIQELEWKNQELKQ

In the next assay the target is T4, O7-bN.
T4 chain: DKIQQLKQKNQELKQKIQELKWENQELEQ

In another assay the target is T5, O13-bN.
T5 chain: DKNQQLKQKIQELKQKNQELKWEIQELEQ

For the next assay, the target named is T6, O2-bN.
T6 chain: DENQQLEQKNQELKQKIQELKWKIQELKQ

A further assay deals with T7, O8-bN.
T7 chain: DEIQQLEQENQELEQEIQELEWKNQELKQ

A further assay addresses T8, O14-bN.
T8 chain: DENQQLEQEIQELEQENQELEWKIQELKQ

For a further assay, the target named is T9, O3-bN.
T9 chain: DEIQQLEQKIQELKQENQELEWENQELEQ

Another assay has as its target T10, O4-bN.
T10 chain: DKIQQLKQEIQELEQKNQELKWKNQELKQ

Another assay deals with T11, O12-bN.
T11 chain: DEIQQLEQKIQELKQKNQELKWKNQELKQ

The target in a further assay is T12, O6-bN.
T12 chain: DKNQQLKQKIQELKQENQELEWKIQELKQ

The next assay addresses T13, O15-bN.
T13 chain: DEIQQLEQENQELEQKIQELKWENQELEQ

The next assay deals with T14, O11-bN.
T14 chain: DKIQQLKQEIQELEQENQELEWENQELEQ

The next assay deals with T15, 4H3189-bA.
T15 chain: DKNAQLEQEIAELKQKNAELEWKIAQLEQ

For another assay, the target named is T16, 4H2745-bH.
T16 chain: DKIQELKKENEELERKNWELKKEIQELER

Another assay deals with T17, 4H344-bH.
T17 chain: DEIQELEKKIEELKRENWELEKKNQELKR

A further assay deals with T18, 4H2568-bH.
T18 chain: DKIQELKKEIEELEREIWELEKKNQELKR

The next assay addresses T19, 4H3961-bH.
T19 chain: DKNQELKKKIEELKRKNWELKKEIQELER

A further assay concerns the target T20, 4H3907-bH.
T20 chain: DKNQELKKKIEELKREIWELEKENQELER

Another assay has as its target T21, 4H2619-bH.
T21 chain: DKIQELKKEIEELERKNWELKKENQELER

For another assay, the target named is T22, 4H363-bH.
T22 chain: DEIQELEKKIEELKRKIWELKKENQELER

A further assay deals with T23, 4H470-bH.
T23 chain: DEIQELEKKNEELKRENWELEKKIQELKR

Turning to DEIQQLEQKIQELKQKNQELKWKNQELKQ [O12-bN], the interaction score in the assay with O9-bN was -0.349; with O5-bN it was -2.82; in the assay with O16-bN it was -0.487; in the assay with O7-bN, -0.201; with O13-bN, -0.316; with O2-bN, -0.846. The interaction score with O8-bN is 0.0745; with O14-bN, -0.704; with O3-bN it was 0.565; with O4-bN, -0.33; in the assay with O12-bN it was -0.0253; in the assay with O6-bN it was 0.155. The same molecule gave an interaction score with O15-bN of -0.511.
Consider DKIQQLKQEIQELEQENQELEWENQELEQ [O11-bN], for which the interaction score in the assay with O9-bN is -0.813; with O5-bN, -1.06; with O16-bN, -1.91; with O7-bN, -1.3; in the assay with O11-bN, -0.191; in the assay with O13-bN, -0.808. Also, the interaction score with O2-bN was -0.23; in the assay with O8-bN, -1.26; with O14-bN, -0.639; with O3-bN, -0.437; in the assay with O4-bN it was 0.401; with O12-bN, 0.971. Further, the interaction score was -0.927 with O6-bN and -0.577 in the assay with O15-bN.
On to DKIQELKKEIEELEREIWELEKKNQELKR [4H2568-bH], for which the interaction score with 4H3189-bA was 0.615; with 4H2745-bH, -0.189; in the assay with 4H344-bH, 0.802; with 4H2568-bH, 2.17; in the assay with 4H3961-bH, 2.42; in the assay with 4H3907-bH, 1.31. In addition, the values for the interaction score in the assay with 4H2619-bH, in the assay with 4H363-bH and with 4H470-bH were 1.65, 1.72 and -1.26, respectively.
